# Source: patent publication US10040853B2, “Methods and compositions involving NKG2D inhibitors and cancer” (Fred Hutchinson Cancer Research Center, priority 2011, dated 2018)
# B1: RNAi targeting of NKG2D: lentivirally expressed hairpin siRNA targeting NKG2D (KLRK1) mRNA positions 690-710; oligonucleotides SEQ ID NO:19 and 20 (nucleic acid, listed as Homo sapiens)
# chain 1: CTAGACCCAACCTACTAACAATAATTTCAAGAGAATTATTGTTAGTAGGTTGGGTTTTTGAT
# chain 2: ATCAAAAAACCCAACCTACTAACAATAATTCTCTTGAAATTATTGTTAGTAGGTTGGGT
# modifications: the letters are possibly those of the target site
# B2: DAP10 siRNA: lentivirally expressed hairpin siRNA targeting DAP10 (HCST) mRNA positions 165-193; oligonucleotides SEQ ID NO:21 and 22 (nucleic acid, listed as Homo sapiens)
# chain 1: CTAGAAGCTCAGACGACTCCAGGAGAGAGATCATTCAAGAGATGATCTCTCTCCTGGAGTCGTCTGAGCTTTTTTTGAT
# chain 2: ATCAAAAAAAGCTCAGACGACTCCAGGAGAGAGATCATCTCTTGAATGATCTCTCTCCTGGAGTCGCTGAGCTT
# modifications: the letters are possibly those of the target site
# B3: sMICA: recombinant soluble MICA, His-tagged NKG2D ligand purified from transfected 293T cells (protein)
# chain: EPHSLRYNLTVLSWDGSVQSGFLTEVHLDGQPFLRCDRQKCRAKPQGQWAEDVLGNKTWDRETRDLTGNGKDLRMTLAHIKDQKEGLHSLQEIRVCEIHEDNSTRSSQHFYYDGELFLSQNLETKEWTMPQSSRAQTLAMNVRNFLKEDAMKTKTHYHAMHADCLQELRRYLKSGVVLRRTVPPMVNVTRSEASEGNITVTCRASGFYPWNITLSWRQDGVSLSHDTQQWGDVLPDGNGTYQTWVATRICQGEEQRFTCYMEHSGNHSTHPVPSGKVLVLQSHW
# modifications: left off: small tags and cut ends
# notes: recombinant soluble MICA, His-tagged NKG2D ligand purified from transfected 293T cells
# What was measured:
# Assay type in all cases: cell-based, human
# P-ERK1/2(T202/Y204) = experiment: ERK MAP kinase activation by sMICA plus crosslinking anti-His tag Ab (immunoblot); details: for phosphorylation of ERK1/2: desensitized EpCAM+CD45− ovarian cancer (OT63), HTB-78, MCF-7-TF cells, sMICA 1 μg/ml crosslinked by anti-His tag Ab, or EGF 100 ng/ml
# From the text: (§1) NKG2D was immunoprecipitated from standard NP-40 buffer lysates of FACSAria-sorted EpCAM^+CD45^− cancer cells (˜5×10^6 per lane), tumor lines (˜5×10^7 cells; 2×10^7 cells with BT-20), and transfectants (5×10^6 cells) using mAb 5C6 immobilized on AminoLink Plus Coupling Resin (Pierce). DAP10 was immunoprecipitated using rabbit polyclonal antibodies (FL-93; Santa Cruz Biotechnology). Immunoblots were probed with polyclonal antibodies to NKG2D or DAP10 (N-20 and N-17; Santa Cruz Biotechnology), or Grb2 (Cell Signaling Technology) and developed using secondary reagents and Supersignal West Dura Extended Duration Substrate (Pierce). Immunoprecipitation and immunoblot detection of mouse NKG2D utilized a rat mAb (clone 191004; R&D Systems) and goat polyclonal reagent (H-15; Santa Cruz Biotechnology), respectively. For P-AKT induction, cancer cells and tumor lines (2×10^6 cells per experimental condition) cultured in 6-well plates were desensitized for 16 h and 4-24 h, respectively, in serum-free RPMI at 37° C. before exposure in 0.5 ml RPMI to insulin (5 μg/ml; 35 min at 37° C.), mAb 1D11 (purified with MabTrap Kit; GE Healthcare Life Sciences) or mAb 5C6 F(ab′)2 (produced with Pierce F(ab′)2 preparation kit) (each 5 μg/ml; 30 min at 4° C.). For crosslinking, washed cells in 0.2 ml RPMI were exposed to goat anti-mouse F(ab′)2 (20 μg/ml; 5 min at 37° C.; Jackson ImmunoResearch). Wortmannin (100 nM; Sigma) was applied 2 h before stimulations. Reactions were terminated on ice by addition of 1 ml sodium orthovanadate (Na3VO4, 2 mM in cold PBS; Calbiochem) and cells resuspended in NP-40 lysis buffer with protease inhibitor cocktail (Roche) and Na3VO4. Cleared supernatants were subjected to SDS-PAGE (4-12% gradient NuPAGE gels; Invitrogen) and proteins electroblotted onto PVDF membranes (Immobilon-P; Millipore), which were probed with rabbit anti-human phospho-AKT(S473) (clone 193H12) or pan-AKT (clone C67E7), secondary HRP-conjugated anti-rabbit IgG (all from Cell Signaling Technology), and chemiluminescent reagent. […] Inhibitors wortmannin (100 nM) and rapamycin (50 nM; LC Laboratories) were added after 2 h of desensitization. Detached cells were sequentially washed and exposed to 1D11 mAb and crosslinking Ab in 0.5 and 0.2 ml cold HBSS, respectively, and processed as above. […] Phosphoproteins and protein controls were detected using rabbit polyclonal antibodies (to P-mTOR, P-S6K1, and P-4E-BP1), mAbs (clones 7C10, 236B4, and 53H11), and anti-rabbit IgG-HRP (all from Cell Signaling Technology). MAPKs were detected with cells grown to semi-confluence in 6-well plates and desensitized for 24 h. […]
# (§2) As determined so far, signaling pathway activation by NKG2D-DAP10 in tumor cells was similar to lymphocytes. […]
# P-JNK1/2(T183/Y185) = experiment: JNK MAP kinase activation by sMICA plus crosslinking anti-His tag Ab (immunoblot); details: for phosphorylation of JNK1/2: desensitized EpCAM+CD45− ovarian cancer (OT63), HTB-78, MCF-7-TF cells, sMICA 1 μg/ml crosslinked by anti-His tag Ab, or EGF 100 ng/ml
# From the text: as §1, §2
# surface NKG2D = experiment: Flow cytometry of tumor lines for surface NKG2D; details: breast, colon, gastric, ovarian, prostate tumor lines after exposure
# Description: Tumor cell lines BT-20, MDA-MB-453, HTB-78, AGS, MDA-MB-231, DLD-1, PC3, and A375 were grown in RPMI 1640, and MCF-7 in Eagle's minimal essential medium (EMEM) plus insulin (0.01 mg/ml; Sigma), both media supplemented with 10% FBS. The mouse TEC and PAM 212 lines were from the ATCC, and […] was provided by Dr. Norm Greenberg (FHCRC). Abs for immunohistochemistry and flow cytometry of cell surface markers were mAb together with HRP-conjugated secondary reagents and mAb-fluorochrome conjugates, respectively, to NKG2D (clone 1D11, -APC; 3), MICA/MICB (clone 6D4, -PE; 7), CD45 (clone 2D1, -APC-Cy7), CD3 (clone UCHT1) (all from BD Pharmingen), and EpCAM (clone 9C4, -Alexa Fluor 488; BioLegend). Binding of anti-ULBP1-5 antibodies (mAbs 3F1, 6F6, 4F9, 6E6, and 6D10; 14) was visualized with a PE-conjugated secondary reagent. Cancer cell viability was assessed using a LIVE/DEAD Fixable Violet Dead Cell Stain kit (Invitrogen). Immunohistochemistry stainings of tissue cryosections employed the Envision System (Dako) protocol. Cells were examined for mAb surface stainings using a BD LSR II flow cytometer and FlowJo software (Tree Star).
# [1] = system: P-mTOR(S2448), P-S6K1(T389), and P-4E-BP1(T37/46); experiment: Activation of mTOR-S6K1/4E-BP1 after NKG2D crosslinking (immunoblot); details: HTB-78 and MCF-7-TF cells after starvation
# Description: Detached cells were sequentially washed and exposed to 1D11 mAb and crosslinking Ab in 0.5 and 0.2 ml cold HBSS, respectively, and processed as above. Sample electrophoresis was in 3-8% (mTOR) and 4-12% (4E-BP1) gradient NuPAGE gels. Phosphoproteins and protein controls were detected using rabbit polyclonal antibodies (to P-mTOR, P-S6K1, and P-4E-BP1), mAbs (clones 7C10, 236B4, and 53H11), and anti-rabbit IgG-HRP (all from Cell Signaling Technology).
# P-AKT(S473) [2] = experiment: P-AKT induction after NKG2D crosslinking in freshly isolated cancer cells (immunoblot); details: sorted EpCAM+CD45− breast, ovarian, prostate cancer cells after serum deprivation; crosslinked Ab 5 μg/ml or insulin 5 μg/ml
# From the text: (§3) NKG2D was immunoprecipitated from standard NP-40 buffer lysates of FACSAria-sorted EpCAM^+CD45^− cancer cells (˜5×10^6 per lane), tumor lines (˜5×10^7 cells; 2×10^7 cells with BT-20), and transfectants (5×10^6 cells) using mAb 5C6 immobilized on AminoLink Plus Coupling Resin (Pierce). DAP10 was immunoprecipitated using rabbit polyclonal antibodies (FL-93; Santa Cruz Biotechnology). Immunoblots were probed with polyclonal antibodies to NKG2D or DAP10 (N-20 and N-17; Santa Cruz Biotechnology), or Grb2 (Cell Signaling Technology) and developed using secondary reagents and Supersignal West Dura Extended Duration Substrate (Pierce). Immunoprecipitation and immunoblot detection of mouse NKG2D utilized a rat mAb (clone 191004; R&D Systems) and goat polyclonal reagent (H-15; Santa Cruz Biotechnology), respectively. […] Phosphoproteins and protein controls were detected using rabbit polyclonal antibodies (to P-mTOR, P-S6K1, and P-4E-BP1), mAbs (clones 7C10, 236B4, and 53H11), and anti-rabbit IgG-HRP (all from Cell Signaling Technology). MAPKs were detected with cells grown to semi-confluence in 6-well plates and desensitized for 24 h. […]
# P-AKT(S473) [3] = experiment: P-AKT induction after NKG2D crosslinking in tumor lines (immunoblot); details: desensitized MCF-7, BT-20, MDA-MB-453, HTB-78, DLD-1, AGS cells
# From the text: as §3
# NKG2D = NKG2D protein depletion by siRNA (immunoblot); details: CD8 T cells, 2×10^6 per lane
# From the text: as §3
# MCF-7-TF cells [4] = experiment: Migration through porous filters and invasion in Matrigel assay
# Description: MCF-7 cells were evaluated for stimulation of cellular migration through porous filters and for invasion of reconstituted basement membranes in MATRIGEL assays (FIG. 10).
# [5] = system: AKT(S473) phosphorylation; experiment: Inducible AKT phosphorylation in siRNA-transduced MCF-7 cells; details: lentiviral siRNA transduction
# From the text: as §3
# MCF-7-TF cells [6] = experiment: Cell cycle analysis by propidium iodide staining; details: MCF-7-TF cells plated 24 h at near confluence without growth factors; Abs each 10 μg/ml
# Description: DNA contents were determined with 70% EtOH-permeabilized and fixed cells treated with PI/RNase staining buffer (BD Pharmingen). Prior to analysis, cells were plated for 24 h in the presence or absence of each 10 μg/ml anti-MIC and -ULBP3 and -ULBP4 mAb or control Ig. Flow cytometry data were analysed using FlowJo cell cycle software with quantitative analysis based on Dean-Jett-Fox model curve fitting. Cellular ATP was determined using the ATPlite luminescence assay system (PerkinElmer). Real-time oxygen consumption and extracellular acidification rates were measured employing the Seahorse Bioscience Extracellular Flux Analyzer XF24 with cells (3×10^4) seeded in custom 24-well plates and grown overnight (34). Metabolic rates were calculated from multiple measurements in buffer-free medium within one h at 37° C. Differences in cell growth rates were accounted for by using fluorescence emission values of Hoechst stainings to calculate normalization factors for cell number corrections.
# The inventors thus explored effects on cellular functions resulting from NKG2D stimulation using the MCF-7 mock-transfected control and MCF-7-TF model cells. Cells were plated at near confluence in the absence of growth factors with or without the relevant anti-MIC and anti-ULBP1/3/4 Abs or control Ig 24 h before assay time (FIG. 7). […]
# MCF-7-TF cells [7] = experiment: EMT-like phenotype of MCF-7-TF cells (phase contrast, IF microscopy, immunoblot)
# From the text: Diagnostic of EMT, among other criteria, are reduced expression of E-cadherin and induction of N-cadherin (Polyak and Weinberg, 2009; Thiery et al., 2009; Yang and Weinberg, 2008). […] Among key transcription factors is SNAI1 and Twist, which were induced in MCF-7-TF as well as in MCF-10A-TF and SUM149PT-TF cells (FIG. 8C). MCF-7-TF cells also scored increased migratory and invasive activities in Matrigel assays (FIG. 8D). Both ERK- and AKT-initiated signaling have been implicated in cancer EMT (Thiery et al., 2009).
# DAP10 = DAP10 protein depletion by siRNA (immunoblot); details: CD8 T cells, 2×10^6 per lane
# From the text: as §3
# MCF-7 cells = experiment: Expansion of siRNA-transduced MCF-7 cells
# [8] = U0126 10 μM, SP600125 100 μM, wortmannin 200 nM, added 30 min before stimulation
# [9] = tumor cell exposure to sMICA or anti-His tag Ab alone, no crosslinking
molecule,measurement,setting,value
"N#CC(=C(/N)Sc1ccccc1N)/C(C#N)=C(\N)Sc1ccccc1N [U0126, reference compound]",effect of inhibitor on appearance of P-ERK1/2,P-ERK1/2(T202/Y204); [8],diminished
same,effect of inhibitor on appearance of P-JNK1/2,P-JNK1/2(T183/Y185); [8],not vice versa
"EGF: rhEGF, positive control activation of MAP kinases [reference compound]",phosphorylation of ERK1/2,P-ERK1/2(T202/Y204),positive control activation
same,phosphorylation of JNK1/2,P-JNK1/2(T183/Y185),positive control activation
IL-15: cytokine which induces T cell NKG2D,surface NKG2D expression,surface NKG2D,No increased expression
"insulin: positive control activation of AKT, 5 μg/ml","induction of P-mTOR(S2448), P-S6K1(T389), P-4E-BP1(T37/46)",[1],positive control activation
same,induction of Phospho-AKT (P-AKT),P-AKT(S473) [2],positive control activation except for the unresponsive prostate cancer cells
same,induction of P-AKT,P-AKT(S473) [3],positive control activation
B1,depletion of NKG2D,NKG2D,depletion
same,migratory and invasive activities,MCF-7-TF cells [4],suppressed
same,inducible AKT(S473) phosphorylation,[5],Absence of inducible AKT(S473) phosphorylation
same,effect on enlarged proportions of cells in S and G2 phase,MCF-7-TF cells [6],reversed
same,"changes in epithelial and mesenchymal marker proteins (E-cadherin, N-cadherin)",MCF-7-TF cells [7]; IF microscopy and immunoblot,reversed
same,cell morphology,MCF-7-TF cells [7]; phase contrast microscopy,restored the parental cell morphology
B2,depletion of DAP10,DAP10,depletion
same,proliferation of transduced cells,MCF-7 cells,proliferated poorly
same,inducible AKT(S473) phosphorylation,[5],Absence of inducible AKT(S473) phosphorylation
B3,phosphorylation of ERK1/2,P-ERK1/2(T202/Y204),resulted in phosphorylation
same,"phosphorylation of ERK1/2, reagent alone",P-ERK1/2(T202/Y204); [9],no effect
same,phosphorylation of JNK1/2,P-JNK1/2(T183/Y185),resulted in phosphorylation
same,"phosphorylation of JNK1/2, reagent alone",P-JNK1/2(T183/Y185); [9],no effect
